Measured values: the RNAGym collection of RNA variant scans (doi:10.7554/elife.90254)

B1: LINE1-mini (parent)
chain: GGCAGAGCUCAACACAGCGUGGCAAAGUGGCUGUGGCUAGACUGCC

Variants of: B1
Assay: self-cleavage, relative activity (ratio to wild type); higher = more cleavage; in vitro, sequencing; the parent is a self-cleaving ribozyme

Variant	self-cleavage
GGCAGAGCUCAACACAGCGUAGCAAAGUGGCUGUGGGUAGACUGCC [G21A C37G]	0.04
GGCAGAGCUCAACACAGCGUAGCAAAGUGGCUGUGGUUAGACUGCC [G21A C37U]	0.07
GGCAGAGCUCAACACAGCGUAGCAAAGUGGCUGUGGAUAGACUGCC [G21A C37A]	0.08
GGCAGAGCUCAACACAGCGUAGCAAAGUGGCUGUGGCUAGACUGGC [G21A C45G]	0.26
GGCAGAGCUCAACACAGCGUAGCAAAGUGGCUGUGGCUAGACUGAC [G21A C45A]	0.97
GGCAGAGCUCAACACAGCGUAGCAAAGUGGCUGUGGCUAGACUGUC [G21A C45U]	2.04
GGCAGAGCUCAACACAGCGGGGCAAAGUGGCUGUGGCAAGACUGCC [U20G U38A]	0.2
GGCAGAGCUCAACACAGCGGGGCAAAGUGGCUGUGGCGAGACUGCC [U20G U38G]	0.02
GGCAGAGCUCAACACAGCGGGGCAAAGUGGCUGUGGCCAGACUGCC [U20G U38C]	0.26
GGCAGAGCUCAACACAGCGUAGCAAAGUGGCUGUGGCUAGAAUGCC [G21A C42A]	0.54
GGCAGAGCUCAACACAGCGUAGCAAAGUGGCUGUGGCUAGAGUGCC [G21A C42G]	0.06
GGCAGAGCUCAACACAGCGUAGCAAAGUGGCUGUGGCUAGAUUGCC [G21A C42U]	1.82
GGCAGAGCUCAACACAGCGUAGCAAAGUGGCUGUGGCUAGACUGCA [G21A C46A]	1.96
GGCAGAGCUCAACACAGCGUAGCAAAGUGGCUGUGGCUAGACUGCG [G21A C46G]	1.5
GGCAGAGCUCAACACAGCGGGGCAAAGUGGCUGUGGCUAUACUGCC [U20G G40U]	0.13
GGCAGAGCUCAACACAGCGGGGCAAAGUGGCUGUGGCUAAACUGCC [U20G G40A]	0.06
GGCAGAGCUCAACACAGCGGGGCAAAGUGGCUGUGGCUACACUGCC [U20G G40C]	0.04
GGCAGAGCUCAACACAGCGUAGCAAAGUGGCUGUGGCUAGUCUGCC [G21A A41U]	0.83
GGCAGAGCUCAACACAGCGUAGCAAAGUGGCUGUGGCUAGGCUGCC [G21A A41G]	0.44

Variant	self-cleavage
GGCAGAGCUCAACACAGCGUAGCAAAGUGGCUGUGGCUAGCCUGCC [G21A A41C]	0.12
GGCAGAGCUCAACACAGCGUAGCAAAGUGGCUGUGGCUAGACUGCC [G21A]	2.19
GGCAGAGCUCAACACAGCGGGGCAAAGCGGCUGUGGCUAGACUGCC [U20G U28C]	0.67
GGCAGAGCUCAACACAGCGGGGCAAAGAGGCUGUGGCUAGACUGCC [U20G U28A]	0.17
GGCAGAGCUCAACACAGCGGGGCAAAGGGGCUGUGGCUAGACUGCC [U20G U28G]	0.51
GGCAGAGCUCAACACAGCGGGGCAAAGUGGCUGUGGCUAGACGGCC [U20G U43G]	0.02
GGCAGAGCUCAACACAGCGGGGCAAAGUGGCUGUGGCUAGACAGCC [U20G U43A]	0.03
GGCAGAGCUCAACACAGCGGGGCAAAGUGGCUGUGGCUAGACCGCC [U20G U43C]	0.04
GGCAGAGCUCAACACAGCGUAGCAAGGUGGCUGUGGCUAGACUGCC [G21A A26G]	1.94
GGCAGAGCUCAACACAGCGUAGCAAUGUGGCUGUGGCUAGACUGCC [G21A A26U]	1.89
GGCAGAGCUCAACACAGCGGGGCAAAGUGGCUGUGUCUAGACUGCC [U20G G36U]	0.07
GGCAGAGCUCAACACAGCGGGGCAAAGUGGCUGUGACUAGACUGCC [U20G G36A]	0.08
GGCAGAGCUCAACACAGCGGGGCAAAGUGGCUGUGCCUAGACUGCC [U20G G36C]	0.09
GGCAGAGCUCAACACAGCGGGGCAAAGUGGCUGAGGCUAGACUGCC [U20G U34A]	0.06
GGCAGAGCUCAACACAGCGGGGCAAAGUGGCUGCGGCUAGACUGCC [U20G U34C]	0.39
GGCAGAGCUCAACACAGCGGGGCAAAGUGGCUGGGGCUAGACUGCC [U20G U34G]	0.14
GGCAGAGCUCAACACAGCGGGGCAAAGUGGCUGUGGCUAGACUACC [U20G G44A]	0.25
GGCAGAGCUCAACACAGCGGGGCAAAGUGGCUGUGGCUAGACUUCC [U20G G44U]	0.23
GGCAGAGCUCAACACAGCGGGGCAAAGUGGCUGUGGCUAGACUCCC [U20G G44C]	0.26

Variant	self-cleavage
GGCAGAGCUCAACACAGCGUAGGAAAGUGGCUGUGGCUAGACUGCC [G21A C23G]	0.78
GGCAGAGCUCAACACAGCGUAGAAAAGUGGCUGUGGCUAGACUGCC [G21A C23A]	1.07
GGCAGAGCUCAACACAGCGUAGUAAAGUGGCUGUGGCUAGACUGCC [G21A C23U]	1.02
GGCAGAGCUCAACACAGCGUAGCAAAGUGGAUGUGGCUAGACUGCC [G21A C31A]	0.12
GGCAGAGCUCAACACAGCGUAGCAAAGUGGGUGUGGCUAGACUGCC [G21A C31G]	0.13
GGCAGAGCUCAACACAGCGUAGCAAAGUGGUUGUGGCUAGACUGCC [G21A C31U]	0.63
GGCAGAGCUCAACACAGCGGGGCAAAGUGGCAGUGGCUAGACUGCC [U20G U32A]	0.07
GGCAGAGCUCAACACAGCGGGGCAAAGUGGCGGUGGCUAGACUGCC [U20G U32G]	0.09
GGCAGAGCUCAACACAGCGGGGCAAAGUGGCCGUGGCUAGACUGCC [U20G U32C]	0.06
GGCAGAGCUCAACACAGCGUAGCAAAGUGGCUGUGGCUCGACUGCC [G21A A39C]	0.68
GGCAGAGCUCAACACAGCGUAGCAAAGUGGCUGUGGCUGGACUGCC [G21A A39G]	0.14
GGCAGAGCUCAACACAGCGUAGCAAAGUGGCUGUGGCUUGACUGCC [G21A A39U]	1.82
GGCAGAGCUCAACACAGCGUAGCACAGUGGCUGUGGCUAGACUGCC [G21A A25C]	2.37
GGCAGAGCUCAACACAGCGUAGCAGAGUGGCUGUGGCUAGACUGCC [G21A A25G]	1.4
GGCAGAGCUCAACACAGCGUAGCAUAGUGGCUGUGGCUAGACUGCC [G21A A25U]	1.75
GGCAGAGCUCAACACAGCGUAGCGAAGUGGCUGUGGCUAGACUGCC [G21A A24G]	2.26
GGCAGAGCUCAACACAGCGUAGCCAAGUGGCUGUGGCUAGACUGCC [G21A A24C]	1.61
GGCAGAGCUCAACACAGCGUAGCUAAGUGGCUGUGGCUAGACUGCC [G21A A24U]	2.52
